B1: phytochrome B (phyB), full length (1‒1172) (receptor, Arabidopsis, UniProt P14713 1-1172, looked up)
chain: MVSGVGGSGGGRGGGRGGEEEPSSSHTPNNRRGGEQAQSSGTKSLRPRSNTESMSKAIQQYTVDARLHAVFEQSGESGKSFDYSQSLKTTTYGSSVPEQQITAYLSRIQRGGYIQPFGCMIAVDESSFRIIGYSENAREMLGIMPQSVPTLEKPEILAMGTDVRSLFTSSSSILLERAFVAREITLLNPVWIHSKNTGKPFYAILHRIDVGVVIDLEPARTEDPALSIAGAVQSQKLAVRAISQLQALPGGDIKLLCDTVVESVRDLTGYDRVMVYKFHEDEHGEVVAESKRDDLEPYIGLHYPATDIPQASRFLFKQNRVRMIVDCNATPVLVVQDDRLTQSMCLVGSTLRAPHGCHSQYMANMGSIASLAMAVIINGNEDDGSNVASGRSSMRLWGLVVCHHTSSRCIPFPLRYACEFLMQAFGLQLNMELQLALQMSEKRVLRTQTLLCDMLLRDSPAGIVTQSPSIMDLVKCDGAAFLYHGKYYPLGVAPSEVQIKDVVEWLLANHADSTGLSTDSLGDAGYPGAAALGDAVCGMAVAYITKRDFLFWFRSHTAKEIKWGGAKHHPEDKDDGQRMHPRSSFQAFLEVVKSRSQPWETAEMDAIHSLQLILRDSFKESEAAMNSKVVDGVVQPCRDMAGEQGIDELGAVAREMVRLIETATVPIFAVDAGGCINGWNAKIAELTGLSVEEAMGKSLVSDLIYKENEATVNKLLSRALRGDEEKNVEVKLKTFSPELQGKAVFVVVNACSSKDYLNNIVGVCFVGQDVTSQKIVMDKFINIQGDYKAIVHSPNPLIPPIFAADENTCCLEWNMAMEKLTGWSRSEVIGKMIVGEVFGSCCMLKGPDALTKFMIVLHNAIGGQDTDKFPFPFFDRNGKFVQALLTANKRVSLEGKVIGAFCFLQIPSPELQQALAVQRRQDTECFTKAKELAYICQVIKNPLSGMRFANSLLEATDLNEDQKQLLETSVSCEKQISRIVGDMDLESIEDGSFVLKREEFFLGSVINAIVSQAMFLLRDRGLQLIRDIPEEIKSIEVFGDQIRIQQLLAEFLLSIIRYAPSQEWVEIHLSQLSKQMADGFAAIRTEFRMACPGEGLPPELVRDMFHSSRWTSPEGLGLSVCRKILKLMNGEVQYIRESERSYFLIILELPVPRKRPLSTASGSGDMMLMMPY
modifications: PΦB chromophore covalently linked to C357
notes: Arabidopsis phytochrome B, residues 1-1172, At2g18790; The same protein is Pr in the dark and Pfr after red light; The purification uses Ni-NTA, but no His tag on phyB is described; also called wild-type phyB; phyB-Pr (dark); source: E. coli BL21(DE3), co-expressed with HO1 and HY2, purified (Ni-NTA, anti-FLAG resin, Source Q); not shown: 3× Flag ([residues removed]), N-terminal, kept
B2: phyB^Y276H/T449C (with C925S, C936S, C972S and C1121S) (receptor, Arabidopsis, UniProt P14713 1-1172, looked up)
chain: B1 chain with Y276H, T449C, C925S, C936S, C972S, C1121S
modifications: PΦB chromophore covalently bound
notes: Arabidopsis phytochrome B (1-1172) with Y276H, T449C and C925S, C936S, C972S, C1121S; source: E. coli BL21(DE3), purified
B3: phyB^T449C (with C925S, C936S, C972S and C1121S) (receptor, Arabidopsis, UniProt P14713 1-1172, looked up)
chain: B1 chain with T449C, C925S, C936S, C972S, C1121S
modifications: PΦB chromophore covalently bound
notes: Arabidopsis phytochrome B (1-1172) with T449C for cross-linking and C925S, C936S, C972S, C1121S against nonspecific cross-linking; source: E. coli BL21(DE3), purified
B4: phyB^Y276H, full length (receptor, Arabidopsis, UniProt P14713 1-1172, looked up)
chain: B1 chain with Y276H
modifications: PΦB chromophore covalently bound
notes: Arabidopsis phytochrome B, residues 1-1172, At2g18790, with Y276H; also called constitutively active mutant phyB^Y276H; source: E. coli BL21(DE3), co-expressed with HO1 and HY2, purified (Ni-NTA, anti-FLAG resin, Source Q); not shown: 3× Flag ([residues removed]), N-terminal, kept
B5: PIF6α (1‒363) (natural protein, Arabidopsis, UniProt Q8L5W7 1-363, looked up)
chain: MMFLPTDYCCRLSDQEYMELVFENGQILAKGQRSNVSLHNQRTKSIMDLYEAEYNEDFMKSIIHGGGGAITNLGDTQVVPQSHVAAAHETNMLESNKHVDDSETLKASSSKRMMVDYHNRKKIKFIPPDEQSVVADRSFKLGFDTSSVGFTEDSEGSMYLSSSLDDESDDARPQVPARTRKALVKRKRNAEAYNSPERNQRNDINKKMRTLQNLLPNSHKDDNESMLDEAINYMTNLQLQVQMMTMGNRFVTPSMMMPLGPNYSQMGLAMGVGMQMGEQQFLPAHVLGAGLPGINDSADMLRFLNHPGLMPMQNSAPFIPTENCSPQSVPPSCAAFPNQIPNPNSLSNLDGATLHKKSRKTNR
notes: Modified pCold TF vector; purified on Ni resin, so a His tag is likely present but is not described; also called full-length PIF6α; source: E. coli BL21(DE3), purified (Ni-NTA, Strep-Tactin, Source Q); not shown: StrepII, C-terminal, kept
B6: phyBN^Y276H (1‒908) (domain or fragment, Arabidopsis, UniProt P14713 1-908, looked up)
chain: MVSGVGGSGGGRGGGRGGEEEPSSSHTPNNRRGGEQAQSSGTKSLRPRSNTESMSKAIQQYTVDARLHAVFEQSGESGKSFDYSQSLKTTTYGSSVPEQQITAYLSRIQRGGYIQPFGCMIAVDESSFRIIGYSENAREMLGIMPQSVPTLEKPEILAMGTDVRSLFTSSSSILLERAFVAREITLLNPVWIHSKNTGKPFYAILHRIDVGVVIDLEPARTEDPALSIAGAVQSQKLAVRAISQLQALPGGDIKLLCDTVVESVRDLTGYDRVMVHKFHEDEHGEVVAESKRDDLEPYIGLHYPATDIPQASRFLFKQNRVRMIVDCNATPVLVVQDDRLTQSMCLVGSTLRAPHGCHSQYMANMGSIASLAMAVIINGNEDDGSNVASGRSSMRLWGLVVCHHTSSRCIPFPLRYACEFLMQAFGLQLNMELQLALQMSEKRVLRTQTLLCDMLLRDSPAGIVTQSPSIMDLVKCDGAAFLYHGKYYPLGVAPSEVQIKDVVEWLLANHADSTGLSTDSLGDAGYPGAAALGDAVCGMAVAYITKRDFLFWFRSHTAKEIKWGGAKHHPEDKDDGQRMHPRSSFQAFLEVVKSRSQPWETAEMDAIHSLQLILRDSFKESEAAMNSKVVDGVVQPCRDMAGEQGIDELGAVAREMVRLIETATVPIFAVDAGGCINGWNAKIAELTGLSVEEAMGKSLVSDLIYKENEATVNKLLSRALRGDEEKNVEVKLKTFSPELQGKAVFVVVNACSSKDYLNNIVGVCFVGQDVTSQKIVMDKFINIQGDYKAIVHSPNPLIPPIFAADENTCCLEWNMAMEKLTGWSRSEVIGKMIVGEVFGSCCMLKGPDALTKFMIVLHNAIGGQDTDKFPFPFFDRNGKFVQALLTANKRVSLEGKVIGAFCFLQIPS
modifications: PΦB chromophore covalently bound
notes: Arabidopsis phytochrome B, residues 1-908, with Y276H; also called HKRD-truncated phyBN^Y276H; truncated phyBN^Y276H (M1‒S908); source: E. coli BL21(DE3), co-expressed with HO1 and HY2, purified; not shown: 3× Flag, N-terminal, kept

In data set [1] the target is PIF6β (1‒182) (Arabidopsis). Nature of the data set: cryo-EM structure; phyB and PIF6β mixed ~1:1.5, on ice under red light (665 nm, 800 μmol m^-2 s^-1), SEC in 25 mM HEPES pH 7.8, 250 mM KCl, 10 mM DTT, 1 mM EDTA; irradiated with red light 20 min before freezing.
Data set [2] concerns the target phytochrome B (phyB), full length (1‒1172) (Arabidopsis) (UniProt P14713).
Data set [3] concerns the molecule itself. Nature of the data set: cryo-EM structure; phyB and PIF6β mixed ~1:1.5, on ice under red light (665 nm, 800 μmol m^-2 s^-1), SEC in 25 mM HEPES pH 7.8, 250 mM KCl, 10 mM DTT, 1 mM EDTA; irradiated with red light 20 min before freezing.
Data set [4] deals with the molecule itself. Put plainly: cross-linking; thiol-directed cross-linking with 1 mM M2M, ~2 μM protein, on ice 30 min, under red light (665 nm, 767 μmol m^-2 s^-1); 25 mM Tris-HCl pH 8.0, 150 mM NaCl; reversed by DTT; more cross-linked band with the PIF6 fragment 13-100.
Data set [5] deals with PIF6β (1‒182) (Arabidopsis). Put plainly: cryo-EM structure; phyB^Y276H or phyBN^Y276H mixed with PIF6β ~1:1.5; full-length complex prepared in the dark; SEC on Superose 6 Increase before freezing.
Data set [6] deals with the molecule itself. Described as above.
The target in the data set “phyB^Y276H, full length” is B4. Put plainly: pull-down; StrepII-tagged PIF6 forms or PIFNs held on Strep-Tactin Sepharose, 3× Flag-phyB or phyB^Y276H in the mixture; in the dark, 4 °C, 2 h; buffer E (100 mM Tris-HCl pH 8.0, 150 mM NaCl, 1 mM EDTA); SDS-PAGE with Coomassie and zinc-induced fluorescence. The settings on record: both partners purified.

Residue numbers refer to the chain shown, from its start. Names may count otherwise.

With “phytochrome B (phyB), full length (1‒1172) (from UniProt P14713 1-1172) (receptor)”, in data set [1], the stoichiometry N (phyB per PIF6β) was found to be 2. PIF6β (1‒182) (natural protein) registered a Pfr→Pr thermal reversion at 25 °C: amount of phyB-Pfr remaining after 400 min with PIF6β against phyB alone in data set [2] of 8 fold.

As to B1, the binding result in data set [3] is given as “binds”. For the molecule B2, in data set [4], the binding result was “binds”.

For B3, the binding result in data set [4] is reported as “binds”. Regarding B4, the stoichiometry N (phyB per PIF6β) in data set [5] worked out at 2. In addition, the binding result in data set [6] is on record as “binds”.

For the molecule B5, the binding result with phyB^Y276H, full length is listed as “binds”. In the case of B6, the binding result in data set [6] is on record as “binds”.

Source of the values: article PMC12098889, “Structural insight into PIF6-mediated red light signal transduction of plant phytochrome B” (Cell Discovery, 2025).
